# Assay results as given in the domain aggregation screens of Martell et al. (2025).
# Assay: soluble fraction after stress (log2 fold change); higher = more stays soluble; pooled small domains, quantitative proteomics
# Conditions: stress: pH 4
# How it was run: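 After pH 4 stress, pooled custom libraries of small protein domains were quantified with high-throughput quantitative proteomics. Aggregation propensity is taken from the fold change in each domain's soluble amount following the acid stress. The scale is log2, where higher values mean more stayed soluble.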
row,Sequence,soluble fraction (log2)
1,HMQNYLEVLRLHELGMGQRKIAQQVHTSRDTIRKIIAIAENQGLNYSNLIGKTDNELSKVFG,0.0958
2,HMAGLYSLLLVELPMERLPEDLPAIKAAWLKTGDTEAFKVALQAMSSRGWTIAVPGKHRDTQMTQL,-0.235
3,HMQITNEGQIKLVISEVLNENQEQKKQYLSGKEQVLGYLIGKVMQKTKGKANPKLVNDLMIKELS,0.217
4,HMEMELNHVARRAGRLSGFLKGELRLSTGLMNRLKWSNAILVNGKPARTNAQVEPGDRITVILD,0.189
5,HMLKLEDIKKDAQVKGIVDGQIVRIVTVEPIGDHALTVYYKDHQGQFAERMLFRSDELNLELATA,-0.64
6,HMSMFAQQLKDLRKKIPGLTQTDMAKKLGIAKTTYASYEQGKRTPDIETQNKIADFFNVSLDYLHG,0.22
7,HMDIAATTVKQKIRTLLADEDAARPLSDQKIADALAEDGIDVARRTVAKYREELGIEPSWARKR,0.0608
8,HMAPVVAILTRQLPLPQAQQLAGQTALVRVVKGGPGNEAELEFAGQNIQVKLPPGRQLTAGEMVTVAFALS,-0.0882
9,HMTDSDTQDIDVGELRVGHFVFLDLSWIRHPFPLSSFKIQSAEQIKTIRSLGLRRIRYSPGRSGP,-0.882
10,HMAPPIQQQVESLMNSFAKIGVTVPMLESRLQHAMSAVTANELVMLRKIGASIRDGFATVAEQFPA,0.0598
11,HMDLTKLFDHDSEYGKSYVFGKITDEMIARAEQTLGYRMPASYIELLKVQNGGMISDELDESWLTTIYGIG,-0.932
12,HMAGAPANLAARLREQILQGAYHDGQRLPAERHLAAEHGVSRGTVREALRLLEQGALLTRKRGSGSYVTYP,0.006
13,HMVAMYLRVGISNGRRYLSIVQGYRDQVTKKVRHNTVKSLGYLDDLEKHYPDPIAHFKAVVEEMNKKQALE,0.191
14,HMGPVDFYQMFISELQHLAEKPVTVDALIESTQLHKSQLTEWLKRAVDDGVVKKLNRPARFQVKNK,0.136
15,HMEPELSVDMKPLDGLLLAIKKELQAAQMYTRLARASADAEQKMVFEQLANMEKGHKARLEDIYT,-0.348
16,HMWSAREQVVNSLREAILTSELKAGERLVLSDLSARLGVSVTPIREALQSLEREGLVQLMPHQEAVVV,-0.409
17,HMETQAGELQDAIRDAIAALPPRTREVFLMSRERNLRYGEIAEALGISVKAVEANMSRALRQLREKLSPFL,0.108
18,HMKLTNIQYETLKVVVESRAKIDEEEGITIKLEDIKKYIDQAISFTGLVGDDEDYKKLFADMEYRFKIQ,-0.925
19,HMDANAYTYKVSEDTDTRTGEKIFLVKVAEKLSRKEYIVVNNYMKSLGSYYSKFKHAFLFKENPTEKL,-0.246

row,Sequence,soluble fraction (log2)
1,HMKKQLTISDGDWAGKVSSMLEDMGVINSASEFDKYLSDNGYSNVIKSGTYDVSPEDTFQELAEKIT,-1.05
2,HMGTKRWELPRRVQQMATQHGKSISTAAAEELVSRSGENTRMLDNDLVKLAQMVEAPQIELADVERWIVR,0.335
3,HMRKTLSQEAYEKIKQNLEDGVYQGYINGRQVARDLDIGFTPVREAFLQLQSEGLIRKEDNVGYFV,-0.183
4,HMTVKNFNDLPGFKNENLAELKAMGITTISELAEALNDGGKIKEIIKNLSGVGPKTAEKWKDAIG,-0.173
5,HMVMRHTVEHDAELLAVLRLMYPASSSTKLRKMLTQGRVLVNDDVVHRAKHGVASGDTVDVIVRQRAE,0.0827
6,HMKKYFPPKSRFNPNKYLLKDWMALGLSEKQSQSILNFIQRGIYSNSALEKIYVMPEEVFTLIKDSTYYEE,-1.26
7,HMPKNVEVPNVVGLSLPMAKLRLTQLGLHIVVRDSVWSETGQPNTILDQDPQPGKKIKPESTVYVKVN,≥ 0.43
8,HMNFDVETGLPLDSRLVVSGLIQRDGINSLKRYEGMIVYVESEAKNYQLVGGISNTDWAELS,-0.426
9,HMSLTYTGKFILNHNNIDQSSFNINIYLVNKQTIIQITKPFYGNVLNIKFNEENDLIISPKQFS,-0.9
10,HMSLMLYVEDVDTAFKKAIELGATEIRPVHDQFYGDRAGTLQDPFGHIWIIGTHKEDVSDEELNNRIGNI,-0.332
11,HMQISDSSLIAKTVATVILENPEAVSDYLGGKHSVVRFMVGQIMKKTQGKANPKMATEMLETALNDL,0.352
12,HMFFAGLSPEAARTLDSLPLHSWSSVEQIARQAGLNIETVRKELGLLELSGIALSRQGRFRRA,0.0761
13,HMRDSYEVEGRIASVSPAAGTFVVAGVTVDYTGARFVGGTVAQLAPGVKVEVEGRRLANGTLQAREIEFD,-0.12
14,HMQSKSEINELPKSIHMAFSPKNFELFIDNLKINEIDFSNWKGELNTIQERVDGQRQIWIQDPQGYWIEIN,-0.335
15,HMNSEAVQNVIDKISALPDDITAKAKSQIEEARAAYEALSDSEKARVTNYSTLVAAEKKLASVVKD,0.121
16,HMSPSQFRSKSLLVEINFASRQMDGEILQGDYAGKRLSELTEAEVQELTAWLKQSDRESFVLLQAYLLRSG,-1.17
17,HMQRAEQLPAELAAVFRAETEAWGFFERQPPGYQRVAIHWVASAKQEATRLRRLAKLIEESAAGRR,-1.43
18,HMGGASVTDQQIRDFVSAHTDDPMAIYKAAVANGISSARLAQVTGISIADIEAFVRKNNLPSF,-0.206
